Where a chain is given by its changes, count along the chain named. Like-named read-outs stand apart in the source and are kept apart here.
B1: murine anti-human NGF monoclonal antibody 43E5 (antibody, V domains shown)
VH: QVQLQQSGAELVRPGASVTLSCKASGYTFTDYEMHWVRQTPVHGLEWIGAIDPETGGTAYNQKFKGKATLTADKSSSTAYMELRSLTSEDSAVYYCRRGANLNHYGNDEGSYWGQGTLVTVSA
VL: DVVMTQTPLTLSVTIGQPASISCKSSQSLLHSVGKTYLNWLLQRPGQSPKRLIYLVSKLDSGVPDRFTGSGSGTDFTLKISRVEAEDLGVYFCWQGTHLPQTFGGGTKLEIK
notes: Murine monoclonal antibody purified from hybridoma medium by protein G; also called anti-NGF antibody 43E5
B2: humanized anti-NGF antibody 43E5-02 (antibody, V domains shown)
VH: QVQLVQSGAEVKKPGASVKVSCKASGYTFTDYEMHWVRQAPGQGLEWIGAIDPETGGTAYNQKFKGRATLTADKSISTAYMELSRLRSDDTAVYYCRRGANLNHYGNDEGSYWGQGTLVTVSS
VL: DVVMTQSPLSLPVTLGQPASISCKSSQSLLHSVGKTYLNWLQQRPGQSPRRLIYLVSKLDSGVPDRFSGSGSGTDFTLKISRVEAEDVGVYFCWQGTHLPQTFGGGTKVEIK
notes: Humanized antibody expressed in CHO cells
B3: humanized anti-NGF antibody 43E5-01 (antibody, V domains shown)
VH: B2 VH with I48M, A68V, L70M
VL: B2 VL
notes: as for B2
B4: humanized anti-NGF antibody 43E5-05 (antibody, V domains shown)
VH: B2 VH with A16S, I48M, A68V, L70I, I76T, R85S, D89E
VL: B2 VL
notes: as for B2
B5: humanized anti-NGF antibody 43E5-06 (antibody, V domains shown)
VH: B2 VH with A16S, I76T, R85S, D89E
VL: B2 VL
notes: as for B2
B6: murine anti-human NGF monoclonal antibody 137H8 (antibody, V domains shown)
VH: QVQLKESGPGLVAPSQSLSITCTVSGFSLTGYAVNWVRQPPGKGLEWLGMIWFDGSTDYNSALKSRLSISKDNSKSQVFLKMNSLQTDDTARYYCARDYYGSSWYFDVWGAGTTVTVSS
VL: DIQMTQTTSSLSASLGDRVTISCRASQDISYYLNWYQQKPDGTVKLLIYYTSRLHSGVPSRFSGSGSGTDYSLTISNLEQEDIATYFCQQGNTLPRTFGGGTKLDIK
notes: Murine monoclonal antibody purified from hybridoma medium by protein G; also called anti-NGF antibody 137H8
B7: human-mouse chimeric antibody 43E5-chi (antibody, V domains shown)
VH: B1 VH
VL: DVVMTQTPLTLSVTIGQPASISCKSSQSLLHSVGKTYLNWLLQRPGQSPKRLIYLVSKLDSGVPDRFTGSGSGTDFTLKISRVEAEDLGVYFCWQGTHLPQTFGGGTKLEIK
notes: the constant regions are not specified
B8: murine anti-human NGF monoclonal antibody 138E12 (antibody, V domains shown)
VH: QVQLKESGPGLVAPSQSLSITCTVSGFSLTGYGVNWVRQPPGKGLEWLGMIWFDGSTDYNSALKSRLSISKDNSKSQVFLKMNSLQTDDTARYYCAREGYYYGTTYYFDYWGQGTTLTVSS
VL: B6 VL with Y31N, D105E
notes: Murine monoclonal antibody purified from hybridoma medium by protein G; also called anti-NGF antibody 138E12

Tests used:
[1] = target: T1, recombinant human NGF protein (human, UniProt P01138 122-241); assay: blocking ELISA, TrkA-Fc coated, antibody premixed with biotin-labeled human NGF
T1 construct: Bought protein; also called nerve growth factor; biotin-labeled human NGF
T1 sequence (P01138 122-241 limits assumed): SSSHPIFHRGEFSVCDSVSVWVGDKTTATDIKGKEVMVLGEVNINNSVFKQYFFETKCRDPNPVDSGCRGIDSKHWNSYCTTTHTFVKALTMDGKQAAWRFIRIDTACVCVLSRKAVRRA
Experimental: If the method of coated receptor TrkA is used for detection, 50 ng of NGF receptor TrkA protein (fused to human Fc) was coated in each well of a 96-well microtiter plate, washed three times, and then blocked with 3% BSA for 1 hour. […] 100 μl was taken and mixed with an equal volume of 1 μg/mL biotin-labeled human NGF, incubated at room temperature for 0.5 hours, and then added to an ELISA plate which has been washed with blocking solution. Incubated for 1 hour at room temperature and washed three times. Streptavidin-labeled HRP (Biolegend, 405210) was added, and incubated for 0.5 h and then washed three times. The microtiter plate was added with TMB, and read after the color development was terminated.

human NT-4 [2] = target: T2, human NT-4 (human, UniProt P34130 81-210); assay: ELISA, plate coated with human NT-4 (50 ng per well), OD450
T2 construct: Bought protein; also called Neurotrophic factor-4
T2 sequence (looked up): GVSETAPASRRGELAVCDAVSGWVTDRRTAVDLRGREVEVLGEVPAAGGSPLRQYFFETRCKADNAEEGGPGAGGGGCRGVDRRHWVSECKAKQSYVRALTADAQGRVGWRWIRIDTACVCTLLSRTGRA
Experimental: (§1) The binding capacity of anti-NGF antibodies was investigated by using human NGF as an antigen (Beijing Yiqiao Shenzhou Technology Co., Ltd., 11050-HNAC). Each well of a 96-well microtiter plate was coated with 50 ng of human NGF, after washing and blocking, and then added with serially diluted antibodies, and incubated at room temperature for 1 hour. After washing three times, HRP-conjugated goat anti-mouse antibody (Biolegend, 405306) was added and incubated at room temperature for 1 hour. After washing three times, tetramethylbenzidine (TMB, Biolegend, 421101) was added for color development. 1M HC1 was used to terminate the color development, and the absorbance values were read at 450 nm with a microplate reader.
(§2) Each well of a 96-well microtiter plate was coated with 50 ng of human NGF (Beijing Yiqiao Shenzhou Technology Co., Ltd., 11050-HNAC), human BDNF (Beijing Yiqiao Shenzhou Technology Co., Ltd., 50240-MNAS), human NT-3 (Beijing Yiqiao Shenzhou Technology Co., Ltd., 10286-HNAE), or human NT-4 (Alomone, N-270). The bindings of the murine anti-NGF antibodies to human NGF and three homo-family proteins were detected according to the method described in Example 2.

[3] = target: T1, recombinant human NGF protein; assay: cell-based or functional assay
[4] = target: T1, recombinant human NGF protein; assay: ELISA, human NGF coated
Experimental: as §1

human BDNF [5] = target: T3, human BDNF (human, UniProt P23560 129-247); assay: ELISA, plate coated with human BDNF (50 ng per well), OD450
T3 construct: Bought protein; also called Brain-Derived Neurotrophic Factor
T3 sequence (looked up): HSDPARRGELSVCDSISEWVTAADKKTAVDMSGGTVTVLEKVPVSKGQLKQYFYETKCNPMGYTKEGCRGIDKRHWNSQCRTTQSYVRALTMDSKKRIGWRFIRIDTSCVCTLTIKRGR
Experimental: as §1, §2

[6] = target: T1, recombinant human NGF protein; assay: BLI (ForteBio Octet Red96), biotin-NGF on SA sensor, antibody in solution
From the text: The affinities of the antibodies were detected with Biomolecular Interaction Detection Platform (ForteBio Octet Red96 (PALL)). Biotin-labeled human NGF was immobilized by using SA (Streptavidin) Biosensor (Fortebio, 18-5021), and then conjugated with gradient concentrations of anti-NGF antibodies.

[7] = target: T1, recombinant human NGF protein; assay: cell-based or functional assay; remark: listed apart in the source
human NT-3 [8] = target: T4, human NT-3 (human, UniProt P20783 139-257); assay: ELISA, plate coated with human NT-3 (50 ng per well), OD450
T4 construct: Bought protein; also called Neurotrophic factor-3
T4 sequence (looked up): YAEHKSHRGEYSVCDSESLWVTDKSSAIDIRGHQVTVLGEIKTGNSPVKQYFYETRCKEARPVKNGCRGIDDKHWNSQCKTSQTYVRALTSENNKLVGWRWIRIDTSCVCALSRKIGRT
Experimental: as §1, §2

[9] = target: T1, recombinant human NGF protein; assay: blocking ELISA, human NGF coated, antibody first, then TrkA-Fc
Experimental: If using the coated ligand NGF method for detection, each well of a 96-well microtiter plate was coated with 50 ng of human NGF and washed three times. […] 100 μL of 1 μg/mL TrkA fused to human Fc was added to each well, incubated for 1 hour at room temperature, and washed three times. HRP-conjugated donkey anti-human IgG antibody (Biolegend, 410902) was added and reacted for 1-hour at room temperature. After washing, add TMB to develop color, and read after the termination of development.

[10] = target: T1, recombinant human NGF protein; assay: cell-based or functional assay; remark: listed apart in the source
[11] = target: T1, recombinant human NGF protein; assay: cell-based or functional assay; remark: listed apart in the source
human NT-3 [12] = target: T4, human NT-3; assay: ELISA, plate coated with human NT-3 (50 ng per well), OD450; remark: listed apart in the source
human NT-4 [13] = target: T2, human NT-4; assay: ELISA, plate coated with human NT-4 (50 ng per well), OD450; remark: listed apart in the source
human BDNF [14] = target: T3, human BDNF; assay: ELISA, plate coated with human BDNF (50 ng per well), OD450; remark: listed apart in the source
[15] = target: T1, recombinant human NGF protein; assay: ELISA, human NGF coated; remark: listed apart in the source
Experimental: The affinity and specificity of humanized antibody were investigated by using human NGF as an antigen (Beijing Yiqiao Shenzhou Technology Co., Ltd., 11050-HNAC). NGF was diluted with […] coating solution (PBS), and each well of 96-well microtiter plate was coated with 50 ng, after washing and blocking, and then added with serially diluted antibodies, and incubated at room temperature for 1 hour. After washing three times, HRP-conjugated donkey anti-human IgG antibody (Biolegend) was added and reacted at room temperature for 1 hour. After washing three times, tetramethylbenzidine (TMB, Biolegend) was added for color development. 1M HC1 was […] used to terminate the color development, and the absorbance values were read at 450 nm with a microplate reader.

Binder	IC50 [1]	binding result (human NT-4 [2])	IC50, inhibition of NGF-induced proliferation of TF-1 cell [3]	EC50 [4]	binding result (human BDNF [5])	Kd [6]	koff [6]	kon [6]	IC50, inhibition of NGF-induced proliferation of TrkA/Ba/F3 cells [7]	binding result (human NT-3 [8])	IC50 [9]	IC50 (row head prints EC50), inhibition of reporter gene expression in TrkA/NFAT-bla/CHO cells [10]	IC50, inhibition of NGF-induced proliferation of TF-1 cell [11]	binding result (human NT-3 [12])	binding result (human NT-4 [13])	binding result (human BDNF [14])	EC50 [15]
B1	0.767 nM	no binding (tested: 66.67 nM)	0.083 nM	0.082 nM	no binding (tested: 66.67 nM)	< 0.001 nM	< 1e-07 s⁻¹	373000 M⁻¹ s⁻¹	0.096 nM	no binding (tested: 66.67 nM)	0.967 nM	0.0532 nM					
B2													0.534 nM	no binding (tested: 66.67 nM)	no binding (tested: 66.67 nM)	no binding (tested: 66.67 nM)	0.222 nM
B3													0.582 nM	no binding (tested: 66.67 nM)	no binding (tested: 66.67 nM)	no binding (tested: 66.67 nM)	0.229 nM
B4													0.701 nM	no binding (tested: 66.67 nM)	no binding (tested: 66.67 nM)	no binding (tested: 66.67 nM)	0.214 nM
B5													0.568 nM	no binding (tested: 66.67 nM)	no binding (tested: 66.67 nM)	no binding (tested: 66.67 nM)	0.192 nM
B6	0.738 nM		0.123 nM	0.112 nM		0.381 nM	4.91e-05 s⁻¹	129000 M⁻¹ s⁻¹	0.083 nM		0.791 nM	0.0859 nM					
B7													0.255 nM	no binding (tested: 66.67 nM)	no binding (tested: 66.67 nM)	no binding (tested: 66.67 nM)	0.104 nM
B8	0.677 nM	no binding (tested: 66.67 nM)	0.077 nM	0.1 nM	no binding (tested: 66.67 nM)	< 0.001 nM	< 1e-07 s⁻¹	634000 M⁻¹ s⁻¹	0.098 nM	no binding (tested: 66.67 nM)	0.865 nM	0.0442 nM					
